The target of one series is LbCas12a (UniProt A0A5S8WF58 1-1228). As to the kind of experiment: thermal shift.
The target in series [1] is LbCas12a (cryo-EM, assembled with crRNA) (UniProt A0A5S8WF58 1-1228). As to the kind of experiment: cryo-EM structure.

Turning to GCGACTCGGTTCTTGCCTAAG (XNA, all 20 linkages phosphorothioate) [PS DNA1], the binding result in the series with LbCas12a is “binds”.
In the case of UAAUUUCUACUAAGUGUAGAUGGGGUUUGAGGUCCAUUACA (structured_RNA) [12a-crRNA], the binding result in series [1] is listed as “binds”.

The values above are taken from PMC12216424.
